According to article PMC4728290:

Biological target: human insulin receptor fused with Renilla luciferase 8 (human) (UniProt P06213)

EC50 of insulin for the insulin-induced BRET increase between hIR–Rluc8 and Grb2–Venus (m1 + m3), live HEK293 cells, insulin 0.001-10,000 nM: 4.4 nM
EC50 of insulin for the insulin-induced BRET increase between hIR–Rluc8 and IRS1–YFP (m1 + m2), live HEK293 cells, insulin 0.001-10,000 nM: 2.2 nM
Substance: bovine insulin (ligand)
